Results taken from patent publication US20200140526A1 (UNIVERSITY OF ROCHESTER, published 2020).

Key:
[1] = target: A/Puerto Rico/08/1934 H1N1 (PR8 H1N1) HA (influenza A virus A/Puerto Rico/08/1934 …, UniProt P03452 18-528); assay: cell-based or functional assay
A/Wyoming/3/2003 H3N2 HA = A/Wyoming/3/2003 H3N2 HA (influenza A virus A/Wyoming/3/2003 H3N2); assay: cell-based or functional assay
[2] = target: T1, B/Brisbane/60/2008 (IBV) HA (influenza B virus B/Brisbane/60/2008 …, UniProt P22092 16-559); assay: cell-based or functional assay
A/Texas/50/2012 = assay: mPLEX-Flu multiplex bead assay, PE anti-human IgG, MFI heat map
B/Massachusetts/2/2012 = target: T2, B/Massachusetts/2/2012; assay: as above
T2 construct: column under B

[3] = target: A/South Carolina/01/1918 H1N1 HA (influenza A virus A/South …, UniProt Q9WFX3 18-529); assay: as above
[4] = target: T1, B/Brisbane/60/2008 (IBV) HA; assay: as above

B1: KPF1 human monoclonal antibody (hmAb) (antibody, V domains shown)
VH: EVQLLESGGGLVQPGGSLRISCAASGSTFGDFAMSWVRQSPGRGLEWVSVTSAGGDRTYYADSVKGRFTISRDNSKNTLYLQMNSLRGEDTAMYYCARLDSSGFHYGRPGRNWGQGTLVTVSS
VL: DIQMTHSPPSLSASVGDRITITCQASQDISYYLIWYQQKPGKAPKPLIYDASNLEAGVPSRFSASGSGTDFTLTISSLQPEDLATYYCQQYKSLPYTFGQGTKLEIK
- NT50 (µg/ml), microneutralization, crystal violet [1]: 146 µg/mL
- NT50 (µg/ml), microneutralization, crystal violet (A/Wyoming/3/2003 H3N2 HA): > 200 µg/mL
- NT50 (µg/ml), microneutralization, crystal violet [2]: > 200 µg/mL
- binding result (A/Texas/50/2012): no binding (tested: 1 ug/ml)
- binding result (B/Massachusetts/2/2012): no binding (tested: 1 ug/ml)
- binding result [3]: binds
- binding result [4]: no binding (tested: 1 ug/ml)
